Test results taken from paper PMC10015821 (Matrix biology : journal of the International Society for …, 2022).

Tests used:
Assay in all cases: SPR
[1] = molecular target: mouse HMCN1 fragment G2F-EGF1–5 (Strep-tagged) (mouse) (UniProt D3YXG0)
[2] = molecular target: mouse HMCN1 fragment G2F-EGF1–3 (mouse) (UniProt D3YXG0)
[3] = molecular target: mouse HMCN1 fragment G2F (mouse) (UniProt D3YXG0)
[4] = molecular target: mouse HMCN1 fragment G2F-EGF1–4 (mouse) (UniProt D3YXG0)
[5] = molecular target: mouse HMCN1 fragment G2F-EGF1–2 (mouse) (UniProt D3YXG0)
[6] = molecular target: mouse HMCN1 fragment TSR6-G2F-EGF1–2 (mouse) (UniProt D3YXG0)
[7] = molecular target: mouse HMCN1 fragment G2F-EGF1–5 (Strep-tagged) (mouse, UniProt D3YXG0 22-5634)
laminin-511 = laminin-511 (UniProt O15230 36-3695; P07942 22-1786; P11047 34-1609)
[8] = molecular target: mouse HMCN1 fragment EGF1–5 (mouse) (UniProt D3YXG0)
[9] = molecular target: laminin-γ1 short arm (mouse) (UniProt P02468)
laminin-γ1 short arm (mouse), sequence (P02468 34-1607): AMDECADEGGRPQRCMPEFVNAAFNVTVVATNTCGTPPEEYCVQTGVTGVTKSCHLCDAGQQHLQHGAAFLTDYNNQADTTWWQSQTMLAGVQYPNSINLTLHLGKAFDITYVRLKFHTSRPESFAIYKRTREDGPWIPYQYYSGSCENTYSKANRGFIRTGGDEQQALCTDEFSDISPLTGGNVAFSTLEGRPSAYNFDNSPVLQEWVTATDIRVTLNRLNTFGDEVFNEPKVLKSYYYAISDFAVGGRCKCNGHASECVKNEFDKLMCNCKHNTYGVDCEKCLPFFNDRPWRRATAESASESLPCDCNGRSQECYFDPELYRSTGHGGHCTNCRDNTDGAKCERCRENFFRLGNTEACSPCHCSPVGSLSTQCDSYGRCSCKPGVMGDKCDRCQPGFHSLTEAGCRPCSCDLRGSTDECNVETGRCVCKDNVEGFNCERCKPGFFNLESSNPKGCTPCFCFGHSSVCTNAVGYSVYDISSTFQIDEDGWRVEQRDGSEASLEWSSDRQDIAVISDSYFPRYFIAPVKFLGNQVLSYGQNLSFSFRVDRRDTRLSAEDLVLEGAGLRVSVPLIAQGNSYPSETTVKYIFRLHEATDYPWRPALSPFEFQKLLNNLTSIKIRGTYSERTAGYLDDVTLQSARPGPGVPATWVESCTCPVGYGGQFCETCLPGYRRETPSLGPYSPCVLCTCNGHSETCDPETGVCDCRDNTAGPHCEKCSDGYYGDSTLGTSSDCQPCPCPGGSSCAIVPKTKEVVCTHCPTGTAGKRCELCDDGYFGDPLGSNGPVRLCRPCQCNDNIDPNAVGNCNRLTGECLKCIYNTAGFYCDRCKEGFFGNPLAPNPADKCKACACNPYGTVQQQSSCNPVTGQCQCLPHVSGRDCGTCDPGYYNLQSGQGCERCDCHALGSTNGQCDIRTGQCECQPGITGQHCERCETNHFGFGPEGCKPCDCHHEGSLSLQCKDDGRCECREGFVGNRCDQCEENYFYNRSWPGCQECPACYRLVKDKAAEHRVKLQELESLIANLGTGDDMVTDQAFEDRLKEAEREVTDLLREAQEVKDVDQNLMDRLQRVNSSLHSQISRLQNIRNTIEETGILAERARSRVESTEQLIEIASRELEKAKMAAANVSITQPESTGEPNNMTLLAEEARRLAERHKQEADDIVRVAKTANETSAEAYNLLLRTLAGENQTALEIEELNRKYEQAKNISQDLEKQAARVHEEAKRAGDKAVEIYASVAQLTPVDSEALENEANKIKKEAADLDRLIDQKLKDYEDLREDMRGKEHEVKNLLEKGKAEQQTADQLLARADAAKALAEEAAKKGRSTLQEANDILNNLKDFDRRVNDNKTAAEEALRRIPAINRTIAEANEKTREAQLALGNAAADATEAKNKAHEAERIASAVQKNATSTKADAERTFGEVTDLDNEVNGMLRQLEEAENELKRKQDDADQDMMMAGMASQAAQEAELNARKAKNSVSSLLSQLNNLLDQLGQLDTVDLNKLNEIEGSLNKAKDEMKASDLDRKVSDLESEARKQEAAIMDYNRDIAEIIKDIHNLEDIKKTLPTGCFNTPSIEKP

| Kd [1] [nM] | Kd [2] [nM] | Kd [3] [nM] | Kd [4] [nM] | Kd [5] [nM] | Kd [6] [nM] | Kd [7] [nM] | Kd (laminin-511) [nM] | koff (laminin-511) [s⁻¹] | Molecule | further results |
| --- | --- | --- | --- | --- | --- | --- | --- | --- | --- | --- |
| 585 | – | – | – | – | – | – | – | – | mouse NID1 TY-G3 (TG3) domain (from UniProt P10493 29-1245) (domain or fragment) | – |
| 30 | 170 | > 3000 | 180 | 185 | 176 | – | – | – | mouse NID2 TY-G3 (TG3) domain, Strep-tagged (from UniProt O88322 31-1403) (domain or fragment) | – |
| – | – | – | – | – | – | 110 | – | – | hybrid fragment: single TY domain of NID1 with the G3 domain of Nid2 (N1T-N2G3) (domain or fragment) KTRCQLEREHILGAAGGADAQRPTLQGMFVPQCDEYGHYVPTQCHHSTGYCWCVDRDGRELEGSRTPPGMRPPCIPTVAPPVVRPTPRPDVTPPSVGTFLLYAQGQQIGHLPLNGSRLQKDAARTLLSLHGSIVVGIDYDCRERMVYWTDVAGRTISRASLEAGAEPETIITSGLISPEGLAIDHFRRTMYWTDSGLDKIERAELDGSERKVLFHTDLVNPRAITVDPIRGNLYWTDWNREAPKIETSSLDGENRRILINKDIGLPNGLTFDPFSKLLCWADAGTKKLECTLPDGTGRRVIQNHLNYPFSIVSYADHFYHTDWRRDGVISVNKDSGQFTDEFLPEQRSHLYGITAVYPYCPTGRK | – |
| 20 | 210 | > 3000 | 193 | 200 | 160 | – | 5 | 0.00081 | mouse nidogen-2 (NID2), full-length, Strep-tagged (natural protein, UniProt O88322 31-1403, looked up) LRPDELFPYGESWGDQLLPEGDDESSAAVKLAIPLRFYDAQFSSLYVGTNGIISTQDFPRETQYVDDDFPTDFPAIAPFLADIDTSHSRGRILYREDTSGAVLSLAARYVRTGFPLSGSSFTPTHAFLATWEHVGAYEEVSRGAAPSGELNTFQAVLASDESDTYALFLYPANGLQFFGTRPKESYNVQLQLPARVGFCRGEADDLKREALYFSLTNTEQSVKNLYQLSNLGIPGVWAFHIGSRFALDNVRPATVGGDPSTARSSALEHPFSHAAALESYTEDSFHYYDENEEDVEYPPVEPGEAPEGHSRIDVSFNSKADPGLVDVGTSSPGSDRASPWPYPAPGNWPSYRETESASLDPQTKQGRPVGEGEVLDFRDPAELLDQMGTRAPAPPEADAALLTPVNEDLGGRNTQSYPEAGPVPSEPDVPVPPLEGEVLPHYPESGHVPPLRGGKYVIGLEDHVGSNDQVFTYNGANLETCEHSHGRCSQHAFCTDYTTGFCCHCQSRFYGNGKHCLPEGAPHRVNGKVSGRLRVGHIPVHFTDVDLHAYIVGNDGRAYTAISHVPQPAAQALLPVLPIGGLFGWLFALEKPGSENGFSLTGATFVHDVEVTFHPGEERVRITQTAEGLDPENYLSIKTNIEGQVPFIPANFTAHITPYKEFYHYRDSVVTSSSSRSFSLTSGSINQTWSYHIDQNITYQACRHAPRHLAIPATQQLTVDRAFALYSEDEGVLRFAVTNQIGPVEVDSAPVGVNPCYDGSHTCDTTARCHPGTGVDYTCECTPGFQGDGRSCVDVNECATGFHRCGPNSVCVNLVGSYRCECRSGYEFADDQHTCILIAPPPNPCLDGSHTCAPEGQARCIHHGGSSFSCACLPGFIGTGHQCSDVDECAENRCHEAAICYNTPGSFSCRCQPGYRGDGFHCTSDTVPEDSISGLKPCEYQQRYAQTQHAYPGSRIHIPQCDDQGNFVPLQCHGSTGFCWCVDRNGHEVPGTQTPPGSTPPHCGPPPEPTQRPRTVCERWRESLLEHYGGTPRDDQYVPQCDDLGHFIPLQCHGKSDFCWCVDKDGRELQGTRSQPGTRPACIPTVAPPVVRPTPRPDVTPPSVGTFLLYAQGQQIGHLPLNGSRLQKDAARTLLSLHGSIVVGIDYDCRERMVYWTDVAGRTISRASLEAGAEPETIITSGLISPEGLAIDHFRRTMYWTDSGLDKIERAELDGSERKVLFHTDLVNPRAITVDPIRGNLYWTDWNREAPKIETSSLDGENRRILINKDIGLPNGLTFDPFSKLLCWADAGTKKLECTLPDGTGRRVIQNHLNYPFSIVSYADHFYHTDWRRDGVISVNKDSGQFTDEFLPEQRSHLYGITAVYPYCPTGRK | Kd [8]: 500 nM; Kd [9]: 6 nM; koff [9]: 0.00073 s⁻¹; kon [9]: 120000 M⁻¹ s⁻¹; koff [1]: 0.00837 s⁻¹ |
| – | – | – | – | – | – | 170 | – | – | hybrid fragment: two TY domains of NID2 with the G3 domain of NID1 (N2T-N1G3) (domain or fragment) LKPCEYQQRYAQTQHAYPGSRIHIPQCDDQGNFVPLQCHGSTGFCWCVDRNGHEVPGTQTPPGSTPPHCGPPPEPTQRPRTVCERWRESLLEHYGGTPRDDQYVPQCDDLGHFIPLQCHGKSDFCWCVDKDGRELQGTRSQPGTRPACLSTVAPPIHQGPVVPTAVIPLPPGTHLLFAQTGKIERLPLERNTMKKTEAKAFLHIPAKVIIGLAFDCVDKVVYWTDISEPSIGRASLHGGEPTTIIRQDLGSPEGIALDHLGRTIFWTDSQLDRIEVAKMDGTQRRVLFDTGLVNPRGIVTDPVRGNLYWTDWNRDNPKIETSHMDGTNRRILAQDNLGLPNGLTFDAFSSQLCWVDAGTHRAECLNPAQPGRRKVLEGLQYPFAVTSYGKNLYYTDWKTNSVIAMDLAISKEMDTFHPHKQTRLYGITIALSQCPQGHNYCSVNNGGCTHLCLPTPGSRTCRCPDNTLGVDCIERK | – |
| 560 | – | – | – | – | – | – | 2.4 | 0.0021 | mouse nidogen-1 (NID1), full-length (natural protein, UniProt P10493 29-1245, looked up) LNRQELFPFGPGQGDLELEAGDDVVSPSLELIGELSFYDRTDITSVYVTTNGIIAMSEPPATEYHPGTFPPSFGSVAPFLADLDTTDGLGNVYYREDLSPFIIQMAAEYVQRGFPEVSFQPTSVVVVTWESVAPYGGPSSSPAEEGKRNTFQAVLASSNSSSYAIFLYPEDGLQFFTTFSKKDESQVPAVVGFSKGLVGFLWKSNGAYNIFANDRESIENLAKSSNAGHQGVWVFEIGSPATAKGVVSADVNLDLDDDGADYEDEDYDLVTSHLGLEDVATPSPSHSPRRGYPDPHNVPRILSPGYEATERPRGVPTERTRSFQLPAERFPQHHPQVIDVDEVEETGVVFSYNTGSQQTCANNRHQCSVHAECRDYATGFCCRCVANYTGNGRQCVAEGSPQRVNGKVKGRIFVGSSQVPVVFENTDLHSYVVMNHGRSYTAISTIPETVGYSLLPLAPIGGIIGWMFAVEQDGFKNGFSITGGEFTRQAEVTFLGHPGKLVLKQQFSGIDEHGHLTISTELEGRVPQIPYGASVHIEPYTELYHYSSSVITSSSTREYTVMEPDQDGAAPSHTHIYQWRQTITFQECAHDDARPALPSTQQLSVDSVFVLYNKEERILRYALSNSIGPVRDGSPDALQNPCYIGTHGCDSNAACRPGPGTQFTCECSIGFRGDGQTCYDIDECSEQPSRCGNHAVCNNLPGTFRCECVEGYHFSDRGTCVAAEDQRPINYCETGLHNCDIPQRAQCIYMGGSSYTCSCLPGFSGDGRACRDVDECQHSRCHPDAFCYNTPGSFTCQCKPGYQGDGFRCMPGEVSKTRCQLEREHILGAAGGADAQRPTLQGMFVPQCDEYGHYVPTQCHHSTGYCWCVDRDGRELEGSRTPPGMRPPCLSTVAPPIHQGPVVPTAVIPLPPGTHLLFAQTGKIERLPLERNTMKKTEAKAFLHIPAKVIIGLAFDCVDKVVYWTDISEPSIGRASLHGGEPTTIIRQDLGSPEGIALDHLGRTIFWTDSQLDRIEVAKMDGTQRRVLFDTGLVNPRGIVTDPVRGNLYWTDWNRDNPKIETSHMDGTNRRILAQDNLGLPNGLTFDAFSSQLCWVDAGTHRAECLNPAQPGRRKVLEGLQYPFAVTSYGKNLYYTDWKTNSVIAMDLAISKEMDTFHPHKQTRLYGITIALSQCPQGHNYCSVNNGGCTHLCLPTPGSRTCRCPDNTLGVDCIERK | – |
